Assay [1] deals with T1, PTD12 (Sp-C9_CAA813-821), synthetic Cas9 target peptide […] (Streptococcus pyogenes). Put plainly: dot blot densitometry.
Assay [2] concerns the target T1, PTD12 (Sp-C9_CAA813-821), synthetic …. The assay is described as follows: dot blot densitometry, same amount of purified proteins.

Ends that are not written are not given here.

For the molecule LLQVDVILLCYPENLEQIKIRLFGSGSHHHHHH (designed binder, also: dimer) [PTD14 (Sp-C9_CAA813-821PAPH), synthetic His-tagged CAAP oligopeptide dimer], in assay [1], the fold stronger interaction than the monomer PTD13 turned out to be 2 fold and the fold stronger interaction than the sAb monomer PTD13 came to 2 fold.

Turning to MHHHHHHELLLSVEVQQLCYPENLEYLFIEKL (designed binder, not shown: small tags and cut ends; large carriers) [C9-813-CAA2 (dimer, parallel-linker-antiparallel), recombinant CAAP oligopeptide-AP fusion protein], in assay [2], the fold stronger interaction than C9-813-92P or C9-813-93P (monomers) amounted to 2.5 fold and the fold stronger interaction than C9-813-CAA4 (tetramer) was found to be 1.5 fold.

B1: C9-813-CAA4 (tetramer, parallel-linker-antiparallel-linker-parallel-linker-antiparallel), recombinan (designed binder)
chain: MHHHHHHLLSVEVQQLCYPENLEYLFIEKLRSEAEGNGTIDFELLQVDVILLKTGEVNNLEQIKIRLF
As for B1, the fold stronger interaction than the monomers (C9-813-92P, C9-813-93P) in assay [1] was 1.5 fold.

The record behind these values is patent US20210017226A1, “METHOD OF GENERATING INTERACTING PEPTIDES” (Peption, LLC, priority 2017, published 2021).
